From PMC3001161 (Molecular cell, 2010) come the findings set out here.

The labels stand for the following.
B2: isolated Cdc53 WHB subdomain (Cdc53^WHB) (domain or fragment, budding yeast, UniProt Q12018 730-815, looked up)
chain: NKRLTEDERIEKELNTERQIFLEACIVRIMKAKRNLPHTTLVNECIAQSHQRFNAKVSMVKRAIDSLIQKGYLQRGDDGESYAYLA

Assay in all cases: ITC
For orientation: Isothermal titration calorimetry measures the heat released or taken up as one component is titrated into another.

For assay [1], the target named is Cdc53^C+-Hrt1^ΔR complex (budding yeast).
The target of assay [2] is T1, Dcn1 potentiating neddylation (PONY) domain, Dcn1^P (budding yeast, UniProt Q12395 70-269).
T1 sequence (looked up): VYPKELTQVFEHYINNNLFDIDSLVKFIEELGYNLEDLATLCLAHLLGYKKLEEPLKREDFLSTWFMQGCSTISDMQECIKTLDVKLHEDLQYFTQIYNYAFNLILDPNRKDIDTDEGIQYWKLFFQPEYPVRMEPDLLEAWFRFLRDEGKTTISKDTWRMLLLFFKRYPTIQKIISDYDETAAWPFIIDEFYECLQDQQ

Assay [3] has as its target Cdc53^C+-Hrt1 complex (budding yeast) (UniProt Q12018).
In assay [4] the target is B2.

What is called stoichiometry N is a count of units in the complex or per binding partner. Usually Kd stands for the concentration at which binding is half-saturated.

B1: Dcn1 potentiating neddylation (PONY) domain, Dcn1^P (domain or fragment)
chain: VYPKELTQVFEHYINNNLFDIDSLVKFIEELGYNLEDLATLCLAHLLGYKKLEEPLKREDFLSTWFMQGCSTISDMQECIKTLDVKLHEDLQYFTQIYNYAFNLILDPNRKDIDTDEGIQYWKLFFQPEYPVRMEPDLLEAWFRFLRDEGKTTISKDTWRMLLLFFKRYPTIQKIISDYDETAAWPFIIDEFYECLQDQQ
B1 yielded a stoichiometry N in assay [1] of 1.
As for B2, in assay [2], the dissociation constant Kd amounted to 227 nM.

B3: full-length Dcn1 (natural protein, budding yeast, UniProt Q12395 1-269, looked up)
chain: MSNNKIKRKDASPEQEAIESFTSLTKCDPKVSRKYLQRNHWNINYALNDYYDKEIGTFTDEVSTVAHPPVYPKELTQVFEHYINNNLFDIDSLVKFIEELGYNLEDLATLCLAHLLGYKKLEEPLKREDFLSTWFMQGCSTISDMQECIKTLDVKLHEDLQYFTQIYNYAFNLILDPNRKDIDTDEGIQYWKLFFQPEYPVRMEPDLLEAWFRFLRDEGKTTISKDTWRMLLLFFKRYPTIQKIISDYDETAAWPFIIDEFYECLQDQQ
On to B3, for which the stoichiometry N in assay [3], in assay [1] and in assay [4] was 1 each time.
